Experimental data published in publication PMC6442418, “Pycnoporus cinnabarinus glyoxal oxidases display differential catalytic efficiencies on 5-hydroxymethylfurfural and its oxidized derivatives” (Fungal Biology and Biotechnology, 2019).

Experiments:
Assay in all cases: purified protein
Type in all cases: biochemical, Trametes cinnabarina
Conditions in all cases: 50 mM sodium tartrate pH 6, 30 °C, HRP 8 U, 0.1 mM ABTS, 5 µM H2O2
[1] = substrate: OCC(O)CO
[2] = substrate: O=Cc1ccc(CO)o1
[3] = substrate: O=CC(=O)O
[4] = substrate: CC(=O)C=O
[5] = substrate: O=Cc1ccc(C=O)o1
[6] = substrate: O=CC=O

| Protein | Km [1] [µM] | Km [2] [µM] | kcat [2] [s⁻¹] | kcat/Km [2] [M⁻¹ s⁻¹] | Km [3] [µM] | Km [4] [µM] | Km [5] [µM] | kcat [5] [s⁻¹] | kcat/Km [5] [M⁻¹ s⁻¹] | Km [6] [µM] |
| --- | --- | --- | --- | --- | --- | --- | --- | --- | --- | --- |
| PciGLOX3 (Trametes cinnabarina) (protein, secreted copper radical oxidase (AA5), heterologously produced in Aspergillus niger, purified) APSAPGWSFDLKKETSGIVALEAIVVSPTLVVFFDRASDDPLQINNHSAWGALWNLESSTVRPLDVLTNSFCASGALLSNGTMASVGGDPDGFVGNPAIRPGNQAIRLFEPCDSPTGDGCTLFEDPATLHLLEKRWYPSSARIFDGSLIIVGGMHEATPFYNTDPALSFEFFPRKEDTPRPSEFLNRSLPANLFPRVFALPDGKVFMVANNQSIIYDIEAKTERILPDVPNNVRVTNPMDGSAILLPLSPPDFVPEVLVCGGSQTDTIDPSLLTSQTPASSQCSRIRLDEEGIAKGWEVEHMLEGRIMPELVHLPNGQVLIANGGRTGFAAIASVSEPVGNSNADHPVLVPSLYTPDAPLGRRISNVGLPSSGIPRLYHSSVTLTPQGNFLIAGSNPNNRTTVGPGIKFPSEFRVQTLDPPFMSVERPKILNMPKKLGFNKSFTVPISVPSSLARPGAKVQISLMDLGFSSHAFHSSARLVFMNGKISQDSKSLTFTTPPNGRVYPPGPATVFLTIDDVTSEGAWVMMGSGNSPPTLE | 5500 | 6350 ± 1320 | 0.75 ± 0.07 | 118.35 ± 0.01 | 500 | 100 | 180 ± 50 | 1.28 ± 0.09 | 7267.7 ± 0.01 | 700 |
| PciGLOX2 (Trametes cinnabarina) (protein, secreted copper radical oxidase (AA5), heterologously produced in Aspergillus niger, purified) APSTPTGWQFNLKAERSGIVALESIVVSPTLVVFFDRATNDPLQINNHSAWGALWNLETSTVRALDVLTNSFCASGALLSNGTMASIGGDPNGFPGNPAIHPGTQAIRLFEPCDSPTGEGCTLFEDPVTLHLLEKRWYPSSVRIFDGSLLIVGGMHEETPFYNTDPALSFEFFPPKESTPRPSEFLNRSLPANLFPRVFALPDGKVFMVANNQSIIYDIEANTERILPDIPNNVRVTNPIDGSAILLPLSPPDFVPEVLVCGGTQTDTIDPSLLTSQTPASSQCSRIRLDEEGIARGWEVEHMLEGRMMPELVHLPNGQVLIANGARTGFAAIASVSDPVGGSNADHAVLVPSLYTPDAPLGTRISNVGLPSSGIARVYHSSITLTPQGNFLIAGSNPNNNSSVTAGVKFPSEFRVQTLDPPFMFVERPKILSMPKKLAFGKSFTVPIAVPSTLAHPGAKVQVSLMDLGFSSHAFHSSARLVFMNAKISQDGKSLTFTTPPNGRVYPPGPATIFLTIDDVTSEGAWVMMGSGNPPPTLE | – | 5870 ± 2040 | 0.56 ± 0.09 | 96.04 ± 0.01 | – | – | 210 ± 40 | 4.8 ± 0.24 | 23404 ± 0.01 | – |
| PciGLOX1 (Trametes cinnabarina) (protein, secreted copper radical oxidase (AA5), heterologously produced in Aspergillus niger, purified) APSAPGWRFDLKAERSGIVALESIVVSPTLVLWFDRASDDPLQINNHSAWGALWNLETSTVRPLNVLTNSFCASGALLSNGSMASVGGDPRGFPGNPAINPGNQAIRIFEPCASPTGDGCTVFEDPQTLHLLEDRWYPSSIRIFDGSLLIVGGTHVNENFYNLHPANSFEFFPPKESTPRPSAFLERSLPANLFPRIFALPDGKVFMVANNQSIIYDIEANTERILPDIPNNVRVTNPIDGSAILLPLTPPDYIPEVLVCGGTSTDPLDPSLLSSQTPATTQCSRIRLDEEGIAKGWQVEHMLEPRTMPELVHIPNGQILIANGARTGFAAIKQVQDPIGNSNSDHAVLVPSIYTPDAPLGQRISNAGMPSSGIARVYHSSITLTPQGNFLIAGSNPNGNTTVGPGVKFPSEFRVQTLDPPFMFVERPKILNTPEKLAFNKTFTVPISVPSTLASPGAKVQVSLMDLGFSSHAFHSSARLVFMDATISRDRRSLTFTTPPNGRVFPPGPATVFLTIDGVTSEGAWVMMGSGNSPPTLE | – | 15660 ± 2350 | 1.59 ± 0.12 | 101.66 ± 0.01 | – | – | 4380 ± 100 | 0.54 ± 0.24 | 124.39 ± 0.01 | – |
